The subject of the data set is Escherichia coli TOP10. In words: shrunken log2 fold change of peptide-encoding DNA abundance (4.5 h post-induction vs induction); higher = less antimicrobial activity (less host growth inhibition). The note with it: time post-induction: 4.5 h; library: site-saturation at positions 5, 18, 19, 20.
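Further: peptides expressed intracellularly from a pBAD plasmid library in pooled LB shake-flask culture, induced with 0.3% L-arabinose, DNA abundance read by NGS, three biological replicates, DESeq2 with apeglm shrinkage.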

Turning to RRIRDRPPRLPRPRPRPSFLPRP, the “shrunken log2 fold change” value was -0.197. Regarding RRIRMRPPRLPRPRPRPFWGPRP, the “shrunken log2 fold change” value was -0.149. For RRIRNRPPRLPRPRPRPKSQPRP the value was 0.0119.

In the case of RRIRHRPPRLPRPRPRPMPPPRP, the “shrunken log2 fold change” value stood at 0.00237. Regarding RRIRMRPPRLPRPRPRPIFEPRP, the “shrunken log2 fold change” value was determined as 0.166. Regarding RRIRLRPPRLPRPRPRPAYVPRP, the “shrunken log2 fold change” value was -0.177. The figure for RRIRWRPPRLPRPRPRPRCMPRP is 0.204.

Turning to RRIRVRPPRLPRPRPRPKRDPRP, the “shrunken log2 fold change” value came to 0.292.

Consider RRIRCRPPRLPRPRPRPTAKPRP, for which the “shrunken log2 fold change” value came to 0.226. The figure for RRIRHRPPRLPRPRPRPEIDPRP is 0.0729; for RRIRWRPPRLPRPRPRPTWYPRP it is 0.27; for RRIRSRPPRLPRPRPRPAVCPRP it is 0.185. For RRIRARPPRLPRPRPRPPPRPRP, the “shrunken log2 fold change” value was 1.56.

Turning to RRIRDRPPRLPRPRPRPVVEPRP, the “shrunken log2 fold change” value stood at 0.321. For RRIRVRPPRLPRPRPRPRHKPRP the value was 0.13. As to RRIRNRPPRLPRPRPRPDFVPRP, the “shrunken log2 fold change” value was -0.045. For RRIRPRPPRLPRPRPRPLCIPRP the value was -0.403; for RRIRMRPPRLPRPRPRPYIGPRP, -0.00926; for RRIRLRPPRLPRPRPRPNWFPRP, -0.00982. For RRIRVRPPRLPRPRPRPHPSPRP, the “shrunken log2 fold change” value is 0.168. The figure for RRIRWRPPRLPRPRPRPLTIPRP is -0.162; for RRIRLRPPRLPRPRPRPNSAPRP it is 0.0654. For RRIRIRPPRLPRPRPRPRGWPRP the value was 0.385; for RRIRGRPPRLPRPRPRPSELPRP, 0.404. With RRIRARPPRLPRPRPRPDFHPRP, the “shrunken log2 fold change” value is -0.0502.

Regarding RRIRQRPPRLPRPRPRPFDWPRP, the “shrunken log2 fold change” value is -0.0369. As for RRIRDRPPRLPRPRPRPKAIPRP, the “shrunken log2 fold change” value is -0.0326. For the sequence RRIRCRPPRLPRPRPRPMHWPRP, the “shrunken log2 fold change” value was 0.00478. The figure for RRIRNRPPRLPRPRPRPSLGPRP is 0.0885; for RRIRTRPPRLPRPRPRPQMVPRP it is -0.37.

Consider RRIRWRPPRLPRPRPRPARGPRP, for which the “shrunken log2 fold change” value was 0.687.

Take RRIRSRPPRLPRPRPRPGCVPRP: the “shrunken log2 fold change” value came to 0.247. For RRIRLRPPRLPRPRPRPECFPRP the value was 0.226; for RRIRWRPPRLPRPRPRPLQWPRP, 0.346. The figure for RRIRGRPPRLPRPRPRPDHAPRP is 0.217; for RRIRLRPPRLPRPRPRPQCIPRP it is -0.0123. RRIRLRPPRLPRPRPRPEKHPRP: the “shrunken log2 fold change” value is -0.262. For RRIRNRPPRLPRPRPRPVAEPRP, the “shrunken log2 fold change” value was 0.363. For RRIRARPPRLPRPRPRPLTDPRP the value was 0.163.

For the sequence RRIRYRPPRLPRPRPRPMYVPRP, the “shrunken log2 fold change” value was -0.0549.

For the sequence RRIRFRPPRLPRPRPRPMQKPRP, the “shrunken log2 fold change” value was 0.00713.

Regarding RRIRHRPPRLPRPRPRPVLRPRP, the “shrunken log2 fold change” value is -0.0204. On to RRIRARPPRLPRPRPRPRGVPRP, for which the “shrunken log2 fold change” value was 0.682. For the sequence RRIRIRPPRLPRPRPRPEDDPRP, the “shrunken log2 fold change” value is -0.16. Turning to RRIRFRPPRLPRPRPRPHPIPRP, the “shrunken log2 fold change” value was -0.0674. The figure for RRIRFRPPRLPRPRPRPIDQPRP is -0.296. For RRIRWRPPRLPRPRPRPWILPRP, the “shrunken log2 fold change” value was -0.19.

As for RRIRARPPRLPRPRPRPFDCPRP, the “shrunken log2 fold change” value was -0.0326. Turning to RRIRWRPPRLPRPRPRPDCYPRP, the “shrunken log2 fold change” value amounted to 0.148. For RRIRMRPPRLPRPRPRPFGIPRP the value was 0.0278; for RRIRCRPPRLPRPRPRPINYPRP, -0.271; for RRIRGRPPRLPRPRPRPEVCPRP, 0.955.

In the case of RRIRFRPPRLPRPRPRPDYVPRP, the “shrunken log2 fold change” value was -0.00174. For RRIRQRPPRLPRPRPRPKHGPRP the value was 0.00489. The figure for RRIRDRPPRLPRPRPRPNTYPRP is -0.127; for RRIRGRPPRLPRPRPRPPGKPRP it is 0.807; for RRIRPRPPRLPRPRPRPWWCPRP it is -0.258. For RRIRSRPPRLPRPRPRPLWPPRP the value was 0.229; for RRIRLRPPRLPRPRPRPPEWPRP, 0.682; for RRIRGRPPRLPRPRPRPAYAPRP, 0.0503. In the case of RRIRSRPPRLPRPRPRPHGAPRP, the “shrunken log2 fold change” value amounted to 0.104. For RRIRMRPPRLPRPRPRPLRKPRP the value was 1.54; for RRIRPRPPRLPRPRPRPVPMPRP, 0.0911. The figure for RRIRDRPPRLPRPRPRPNMDPRP is -0.491; for RRIRPRPPRLPRPRPRPLKDPRP it is -0.115. The figure for RRIRNRPPRLPRPRPRPAMVPRP is -0.0286; for RRIRMRPPRLPRPRPRPMVYPRP it is 0.0294; for RRIRVRPPRLPRPRPRPSEQPRP it is -0.0241. RRIRTRPPRLPRPRPRPYHLPRP: the “shrunken log2 fold change” value was -0.805. For RRIRWRPPRLPRPRPRPFKKPRP the value was 0.149; for RRIRRRPPRLPRPRPRPCQAPRP, 0.0144; for RRIRSRPPRLPRPRPRPLAWPRP, 0.402. The figure for RRIRHRPPRLPRPRPRPSMGPRP is -0.149; for RRIRTRPPRLPRPRPRPNDNPRP it is -0.739; for RRIRFRPPRLPRPRPRPYYQPRP it is -0.203.

As for RRIRSRPPRLPRPRPRPVIKPRP, the “shrunken log2 fold change” value was -0.476. On to RRIRIRPPRLPRPRPRPRVFPRP, for which the “shrunken log2 fold change” value was 0.0961. Take RRIRCRPPRLPRPRPRPVKNPRP: the “shrunken log2 fold change” value was -0.344. The figure for RRIRCRPPRLPRPRPRPEKLPRP is -0.077; for RRIRFRPPRLPRPRPRPEFGPRP it is 0.0197; for RRIRDRPPRLPRPRPRPIQGPRP it is 0.00911. For the sequence RRIRCRPPRLPRPRPRPLECPRP, the “shrunken log2 fold change” value was -0.354. In the case of RRIRDRPPRLPRPRPRPAYCPRP, the “shrunken log2 fold change” value amounted to 0.00854.

As for RRIRDRPPRLPRPRPRPWLAPRP, the “shrunken log2 fold change” value is 0.171. RRIRYRPPRLPRPRPRPFANPRP: the “shrunken log2 fold change” value was -0.245. For RRIRIRPPRLPRPRPRPQFSPRP the value was -0.371.

As for RRIRRRPPRLPRPRPRPRMRPRP, the “shrunken log2 fold change” value stood at 0.744. The figure for RRIRERPPRLPRPRPRPNGNPRP is -0.104; for RRIRARPPRLPRPRPRPDFDPRP it is 1.07. For RRIRARPPRLPRPRPRPLVRPRP the value was 0.264.

On to RRIRFRPPRLPRPRPRPPLQPRP, for which the “shrunken log2 fold change” value came to 0.353. For RRIRIRPPRLPRPRPRPLSPPRP, the “shrunken log2 fold change” value is 1.35. The figure for RRIRTRPPRLPRPRPRPKSVPRP is -0.0225; for RRIRARPPRLPRPRPRPTMYPRP it is -0.154.

With RRIRKRPPRLPRPRPRPYSMPRP, the “shrunken log2 fold change” value is -0.39. As to RRIRTRPPRLPRPRPRPRFRPRP, the “shrunken log2 fold change” value is 0.158. For RRIRMRPPRLPRPRPRPMDWPRP the value was 0.15; for RRIRFRPPRLPRPRPRPYWRPRP, -0.0769; for RRIRSRPPRLPRPRPRPMLKPRP, -0.0793. RRIRFRPPRLPRPRPRPFKMPRP: the “shrunken log2 fold change” value turned out to be 1.77. As to RRIRIRPPRLPRPRPRPTGFPRP, the “shrunken log2 fold change” value was -0.0748.

On to RRIRPRPPRLPRPRPRPPSMPRP, for which the “shrunken log2 fold change” value was 0.29. For RRIRNRPPRLPRPRPRPVVKPRP the value was 0.0106; for RRIRPRPPRLPRPRPRPQTSPRP, 0.163; for RRIRYRPPRLPRPRPRPDVTPRP, -0.00733.

With RRIRRRPPRLPRPRPRPVKCPRP, the “shrunken log2 fold change” value came out at 0.23.

For the sequence RRIRTRPPRLPRPRPRPPDWPRP, the “shrunken log2 fold change” value was determined as 0.705. For RRIRPRPPRLPRPRPRPLPLPRP the value was -0.128; for RRIRWRPPRLPRPRPRPAQEPRP, 0.149. Turning to RRIRLRPPRLPRPRPRPQIAPRP, the “shrunken log2 fold change” value is -0.0971.

RRIRSRPPRLPRPRPRPGPGPRP: the “shrunken log2 fold change” value came out at 0.599.

Consider RRIRWRPPRLPRPRPRPCYKPRP, for which the “shrunken log2 fold change” value was -0.00556. For RRIRWRPPRLPRPRPRPAEKPRP the value was 0.192; for RRIRSRPPRLPRPRPRPYEIPRP, -0.0474. On to RRIRNRPPRLPRPRPRPLTTPRP, for which the “shrunken log2 fold change” value is -0.07. For RRIRNRPPRLPRPRPRPHGVPRP the value was 0.0154; for RRIRARPPRLPRPRPRPSGWPRP, 0.861; for RRIRTRPPRLPRPRPRPCNIPRP, 0.048. The figure for RRIRYRPPRLPRPRPRPRIIPRP is -0.457; for RRIRQRPPRLPRPRPRPQNAPRP it is -0.198. In the case of RRIRARPPRLPRPRPRPHHVPRP, the “shrunken log2 fold change” value was -0.0499. For RRIRNRPPRLPRPRPRPSVAPRP the value was -0.0478; for RRIRQRPPRLPRPRPRPLSCPRP, -0.242; for RRIRMRPPRLPRPRPRPTWFPRP, 0.448. With RRIRTRPPRLPRPRPRPSFAPRP, the “shrunken log2 fold change” value is -0.126.

(Values after the supplement of paper PMC9112550, “Optimization of the antimicrobial peptide Bac7 by deep mutational scanning” (BMC Biology, 2022).)
